How the values were obtained:
[1] = biological target: Src homology 3 domain binding protein 5 (SH3BP5 or SAB), ectopically expressed from pLOC:Sab (UniProt O60239); experiment: cell-based or functional assay
[2] = biological target: Sab:KIM1/2 L-A (MAPK/JNK-binding deficient mutant of Sab, pLOC:Sab:KIM1/2 L-A) (UniProt O60239); experiment: cell-based or functional assay
Sab:KIM1/2 L-A (MAPK/JNK-binding deficient mutant of Sab, pLOC:Sab:KIM1/2 L-A), sequence (O60239 other isoform, or with tags, fused parts or gaps mutant limits assumed): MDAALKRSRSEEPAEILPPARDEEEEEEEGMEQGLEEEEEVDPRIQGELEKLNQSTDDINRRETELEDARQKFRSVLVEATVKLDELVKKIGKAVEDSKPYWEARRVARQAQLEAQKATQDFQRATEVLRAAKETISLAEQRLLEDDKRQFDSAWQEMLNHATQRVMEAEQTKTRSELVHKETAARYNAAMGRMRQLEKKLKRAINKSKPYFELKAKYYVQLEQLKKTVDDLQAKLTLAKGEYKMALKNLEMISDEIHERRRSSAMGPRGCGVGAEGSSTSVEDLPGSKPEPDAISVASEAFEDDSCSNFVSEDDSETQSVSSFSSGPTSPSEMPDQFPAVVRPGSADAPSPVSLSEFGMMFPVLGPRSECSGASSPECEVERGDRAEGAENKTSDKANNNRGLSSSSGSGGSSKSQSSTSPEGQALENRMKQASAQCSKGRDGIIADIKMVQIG

Src homology 3 domain binding protein 5 (SH3BP5 or SAB), ectopically expressed from pLOC:Sab, sequence (O60239 whole entry): as the sequence (O60239 other isoform, or with tags, fused parts or gaps mutant limits assumed) above, with A347L, A349L, A434L, A436L counted along it

- Cisplatin IC50 (nM), HeLa cells with ectopic expression, TO-PRO-3 staining [1]: 0.42 nM
- Paclitaxel IC50 (µM), HeLa cells with ectopic expression, TO-PRO-3 staining [1]: 4.7 µM
- fold decrease in the IC50 of paclitaxel in HeLa cells against untreated, mock-transfected or RFP-expressing cells [1]: 5 fold
- Cisplatin IC50 (nM), HeLa cells with ectopic expression, TO-PRO-3 staining [2]: 3.1 nM
- Paclitaxel IC50 (µM), HeLa cells with ectopic expression, TO-PRO-3 staining [2]: 13.8 µM
Substance: c-Jun N-terminal Kinase (JNK) (enzyme)
